In publication PMC5889621 (Proceedings of the National Academy of Sciences of the …, 2018):
Numbering of substitutions follows the chain as printed. Names may count otherwise. “And” between values parts separate entries of the source, which are not always exact repeats. Equal values may be shown once. Values belong to the binder of their own block, whether it stands above or below them.

Columns and labels:
[1] = biological target: T1, LMAN1/ERGIC53 (endogenous) (human (endogenous in 293A)), P49257; assay: SDS/PAGE without reducing agent and immunoblot; details: remark: other sources report otherwise
T1 chain: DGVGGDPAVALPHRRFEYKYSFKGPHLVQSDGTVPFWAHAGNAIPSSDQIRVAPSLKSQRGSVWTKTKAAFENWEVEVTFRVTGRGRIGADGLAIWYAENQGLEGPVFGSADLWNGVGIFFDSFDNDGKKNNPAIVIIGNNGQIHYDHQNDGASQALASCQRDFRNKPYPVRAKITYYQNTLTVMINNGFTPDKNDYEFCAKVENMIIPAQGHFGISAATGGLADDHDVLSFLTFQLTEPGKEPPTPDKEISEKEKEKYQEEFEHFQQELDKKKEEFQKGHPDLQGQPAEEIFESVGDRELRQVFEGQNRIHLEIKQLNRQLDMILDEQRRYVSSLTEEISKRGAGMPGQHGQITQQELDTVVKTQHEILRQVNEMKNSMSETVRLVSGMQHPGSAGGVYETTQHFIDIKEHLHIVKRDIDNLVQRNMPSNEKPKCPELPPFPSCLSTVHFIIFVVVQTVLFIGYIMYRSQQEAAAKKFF

[2] = biological target: the molecule itself; assay: SDS/PAGE without reducing agent and immunoblot

stoichiometry N [1]: 2 and 6
B1: LMAN1/ERGIC53 (endogenous), P49257 31-510 (natural protein)
chain: T1 chain

B2: Myc-LMAN1 C466A (natural protein, UniProt P49257 31-510, looked up)
chain: T1 chain with C436A
stoichiometry N [2]: 2

B3: Myc-LMAN1 C466A C475A double mutant (natural protein, UniProt P49257 31-510, looked up)
chain: T1 chain with C436A, C445A
stoichiometry N [2]: 2

B4: Myc-LMAN1 C475A (natural protein, UniProt P49257 31-510, looked up)
chain: T1 chain with C445A
stoichiometry N [2]: 2
